Laboratory results as given in patent US12708677B2, “Contrast agents, methods for preparing contrast agents, and methods of imaging” (Georgia State University Research Foundation, Inc., priority 2008, dated 2026).
Values joined by “and” are separate entries in the source; they are usually repeats but may differ in a detail not shown here. Equal entries are not always repeated. Marks after values point to notes of the source that are not given here.

What was measured:
[1] = Water coordination number by terbium life time luminescence; type: physicochemical
Protocol: Measurement of Water Coordination Number by Terbium Life Time Luminescence. The number of water ligands coordinated to Gd^3+-CA1.CD2 complex was determined by measuring Tb^3+ luminescence decay in H2O or D2O. Tb^3+ excited state lifetime was measured using a fluorescence spectrophotometer (Photon Technology International, Inc.) with a 10 mm path length quartz cell at 22° ° C. Following excitation at 265 nm with a XenoFlash (Photon Technology International, Inc.), Tb^3+ emission was monitored at 545 nm in a time series experiment in both H2O and D2O systems. Luminescence decay lifetime was obtained by fitting the acquired data with a mono-exponential decay function. H2O in CA1.CD2 solution was replaced with D2O by lypholization and re-dissolved in D2O at least three times. A standard curve correlating the Δkobs with water number under our experimental conditions was established by using well-characterized chelators, such as EDTA (q=3), DTPA (q=1), NTA (q=5), and Aquo Tb^3+ (q=9) solution with R^2=0.997.^26,27 Water number coordinated to Tb^3+-CA1.CD2 complex was then obtained by fitting the acquired Δkobs value to the standard curve.
The numbers of water ligands coordinated to Gd^3+-CA1.CD2 and variants complex were determined by measuring Tb^3+ luminescence decay in H2O or D2O (Yang et al., 2008). Tb^3+ excited state lifetime was measured using a fluorescence spectrophotometer (Photon Technology International, Inc.) with a 10 mm path length quartz cell at 22° C. Following excitation at 265 nm with a XenoFlash (Photon Technology International, Inc.), Tb^3+ emission was monitored at 545 nm in a time series experiment in both H2O and D2O systems. Luminescence decay lifetime was obtained by fitting the acquired data with a mono-exponential decay function. H2O in CA1.CD2 solution was replaced with D2O by lypholization and re-dissolved in D2O at least three times. A standard curve correlating the Δkobs with water number under our experimental conditions was established by using well-characterized chelators, such as EDTA (q=3). DTPA (q=1), NTA (q=5), and Aquo Tb^3+ (q=9) solation with R^2=0.997.^26, 27 Water number coordinated to Tb^+-CA1.CD2 complex was then obtained by fitting the acquired Δkobs value to the standard curve.

[2] = Protein solubility by concentrating to precipitation; type: physicochemical; settings: current formulation
Protocol: Protein was expressed in E. coli as inclusion body and purified using urea refolding and ion-exchange column. N15 labeled protein was expressed in SV medium as GST fusion (Yang et al., Biochem 2006) and purification was by GST-4B affinity column and SP column. Protein was verified by mass spectrometry. Protein concentration was calculated using extinction coefficient of w.t. CD2 of 11,000 (Ye et al., 2001). Protein solubility was determined by concentrating proteins to reach to precipitation using speed vac.

rabbits = assay: Immunogenicity in rabbits, ELISA and immunoblotting; type: in vivo, rabbit
Protocol: FIG. 2.7: Illustrates ELISA (left) or western blot (right) analyses of antibody produced in rabbit serum after i.p. injection of […] of protein CA1.CD2 or PEGylated CA1.CD2 (PEGCA1.CD2). In (left), Pre is the serum from pre-bleeding before antigen injection. CA1.CD2 was mixed with adjuvant (CA1.CD2+Ad) or with buffer saline (CA1.CD2+Sal) before injection. PabCD2 is the anti-serum from rabbits produced by a commercial source use CD2 as antigen. The open bars are the first bleed after first injection. The gray bars are the second bleed after second injection. The rabbit blood was taken 3 weeks after each injection. The error bars are standard deviations of four measurements. In (right), Western blots were performed with anti-serum (1st bleed) from rabbits that were injected; CA1.CD2 mixed with buffered saline (left panel, CA1.CD2+Sal), CA1.CD2 mixed with adjuvant (middle panel, CA1.CD2+Ad), and the PEGylated CA1.CD2 (right panel, PEG-CA1.CD2). The Western blots experiments were carried out with 0.5 mg of PEGylated CA1.CD2 (PEG-CA1.CD2) or unmodified CA1.CD2 (CA1.CD2). Arrow indicates the position of the detected protein bands 19 hours post injection.
Rabbits were i.p. injected with Gd-CA1.CD2 and its pegylated variants. The agents (CA1.CD2) were mixed with adjuvant or with buffer saline and injected at a dose of 3.0 nmole/kg according to the standard protocol for the antibody production. […]

AU565 cells = assay: Cell binding by immuno-fluorescence staining; type: cell-based; settings: 37 and 4° C.
Source text: We first examined whether the designed CA1.HER2/Affi can target cancer cells by cell binding analyses. We used two cancer cell lines for the binding analyses. AU565 is derived from breast carcinoma. EMT6 is a mouse mammary tumor cell line. AU565 cells express very high levels of HER2. The EMT is regarded as a HER2 negative cell line. Binding of the Gd-CA1.HER2/Affi to the cancer cells was first analyzed by immuno-fluorescence staining using a polyclonal antibody against PEGylated parental protein CA1.CD2 (PAbPGCA1).

AU565 = assay: MR imaging of cancer cell pellets; type: cell-based
Protocol: (§1) To test whether our designed proteins are applicable for targeted imaging, we carried out MR imaging of cancer cells that were incubated with the designed protein contrast agents Gd-CA1-Affi using four different cancer cell lines with different expression levels of HER2. […] The MR image contrast enhancements from the contrast agent can be correlated to the HER2 levels.

SKOV3 = assay: MR imaging of cancer cell pellets; type: cell-based
Protocol: as §1

CD-1 mice = assay: Toxicity analyses and clinical pathology in mice
Protocol: Toxicity Analyses. […] Tissue samples from kidney, liver, spleen, and lung were collected.
One group of mice received (i.v. tail veil) 50 μl of saline-buffer (as control). […] Blood samples were collected from the experimental mice. Serum samples were prepared from the collected blood. Liver enzymes in serum samples, including Alanine transaminase (ALT), Alkaline phosphatase (ALP), Aspartate transaminase (AST), Gamma glutamyl transpeptidase (GGT), and bilirubin and urea nitrogen were analyzed by a commercially available source (MU Research Animal Diagnostic Laboratory). All clinical chemistry parameters were measured on an Olympus AU 400 analyzer.
Tissue samples from kidney, liver, spleen, and lung were collected.

B1: CA1.CD2: designed Gd^3+-binding protein, domain 1 of rat CD2 with ligand residues Glu15, Glu56, Asp58, Asp62, Asp64 (protein)
chain: RDSGTVWGALGHGIELNIPNFQMTDDIDEVRWERGSTLVAEFKRKMKPFLKSGAFEIDANGDLDIKNLTRDDSGTYNVTVYSTNGTRILNKALDLRILE
Q: For B1, which “hydration number (water number in the coordination shell)” value [1] is on record?
A: 2.1 and 2

Q: And the “Tb^3+ life time” value ([1]; in D2O)?
A: 1,679 μs

Q: What about the “Tb^3+ life time” value ([1]; protein complex in H2O) of the same molecule?
A: 859 μs

Q: What about the solubility [2] of the same molecule?
A: ~ 0.7 mM

Q: What about the antibody production (rabbits; with adjuvant) of the same molecule?
A: resulted in immuno-responses

Q: What about the antibody production (rabbits; without adjuvant, double dose immunization, 3.0 nmole/kg i.p.) of the same molecule?
A: did not lead to antibody production

Q: And the “binding to AU565 cells” value (AU565 cells)?
A: did not bind to either of the tested cultured cells

B2: Gd-CA1.CD2: CA1.CD2 in complex with Gd^3+ (protein)
chain: RDSGTVWGALGHGIELNIPNFQMTDDIDEVRWERGSTLVAEFKRKMKPFLKSGAFEIDANGDLDIKNLTRDDSGTYNVTVYSTNGTRILNKALDLRILE
Q: With B2 as the molecule, how does the “MR image of AU565 cell pellets” value (AU565) read?
A: no significant changes in MR image

Q: And the “MR image of SKOV3 cell pellets” value (SKOV3)?
A: no significant changes in MR image

Q: What about the ALP (CD-1 mice; 4.0 μmole/kg, n = 4) of the same molecule?
A: 115.0 ± 0.2 U/L

Q: And the ALT (CD-1 mice; 4.0 μmole/kg, n = 4)?
A: 49.0 ± 0.2 U/L

Q: What about the AST (CD-1 mice; 4.0 μmole/kg, n = 4) of the same molecule?
A: 280.0 ± 0.2 U/L

Q: And the “Direct Bili” value (CD-1 mice; 4.0 μmole/kg, n = 4)?
A: 0.0 mg/L

Q: And the GGT (CD-1 mice; 4.0 μmole/kg, n = 4)?
A: 0.0 U/L

Q: And the “Total Bili” value (CD-1 mice; 4.0 μmole/kg, n = 4)?
A: 0.4 ± 0.2 mg/L

Q: What about the “Total Urine Protein” value (CD-1 mice; 4.0 μmole/kg, n = 4) of the same molecule?
A: 5.2 ± 0.2 g/L

Q: What about the “Urea Nitrogen” value (CD-1 mice; 4.0 μmole/kg, n = 4) of the same molecule?
A: 26.0 ± 0.2^d mg/L

Q: And the “effects on liver enzymes (ALT, ALP, AST), serum urea nitrogen, bilirubin, total protein vs control mice” value (CD-1 mice; 48 hours post-contrast injection)?
A: negligible

Q: And the acute toxicity (CD-1 mice; ~2.4 μmole/kg, observed five days)?
A: did not exhibit acute toxicity
